From publication PMC2588538, “Structure of Reovirus σ1 in Complex with Its Receptor Junctional Adhesion Molecule-A” (PLoS Pathogens, 2008)

B1: σ1 of reovirus strain rsT3D-σ1T249I (parent), on purified virions [mammalian orthoreovirus, strain type 3 Dearing (T3D)] / GST-JAM-A ectodomain fusion protein [not stated] (parent complex)
chain 1: MDPRLREEVVRLIIALTSDNGASLSKGLESRVSALEKTSQIHSDTILRITQGLDDANKRIIALEQSRDDLVASVSDAQLAISRLESSIGALQTVVNGLDSSVTQLGARVGQLETGLAELRVDHDNLVARVDTAERNIGSLTTELSTLTLRVTSIQADFESRISTLERTAVTSAGAPLSIRNNRMTMGLNDGLTLSGNNLAIRLPGNTGLNIQNGGLQFRFNTDQFQIVNNNLTLKTTVFDSINSRIGAIEQSYVASAVTPLRLNSSTKVLDMLIDSSTLEINSSGQLTVRSTSPNLRYPIADVSGGIGMSPNYRFRQSMWIGIVSYSGSGLNWRVQVNSDIFIVDDYIHICLPAFDGFSIADGGDLSLNFVTGLLPPLLTGDTEPAFHNDVVTYGAQTVAIGLSSGGAPQYMSKNLWVEQWQDGVLRLRVEGGGSITHSNSKWPAMTVSYPRSFT
chain 2: SVTVHSSEPEVRIPENNPVKLSCAYSGFSSPRVEWKFDQGDTTRLVCYNNKITASYEDRVTFLPTGITFKSVTREDTGTYTCMVSEEGGNSYGEVKVKLIVLVPPSKPTVNIPSSATIGNRAVLTCSEQDGSPPSEYTWFKDGIVMPTNPKSTRAFSNSSYVLNPTTGELVFDPLSASDTGEYSCEARNGYGTPMTSNAVRMEAVERNVGV

Variants of: B1
Assay: SPR; 8×1012 (orange) particles/ml virus; GST-JAM-A captured on biosensor surface; parent: 98; read off a plot
chain 1 N369A was tested, and the response was roughly 25 RU.
